In publication PMC12834914, “The biochemical dynamics of the glycogen phosphatase laforin directly impact brain metabolism” (The Journal of Biological Chemistry, 2025):

Target: T1, laforin C266S (LexA fusion) (human, UniProt O95278 1-331, C266S)
T1 construct: laforin, glycogen phosphatase encoded by EPM2A, catalytic cysteine mutated to serine; in mouse laforin the same change is C265S; also called LCS; laforin C/S; source: yeast two-hybrid fusion (S. cerevisiae, pEG202)
T1 sequence (looked up): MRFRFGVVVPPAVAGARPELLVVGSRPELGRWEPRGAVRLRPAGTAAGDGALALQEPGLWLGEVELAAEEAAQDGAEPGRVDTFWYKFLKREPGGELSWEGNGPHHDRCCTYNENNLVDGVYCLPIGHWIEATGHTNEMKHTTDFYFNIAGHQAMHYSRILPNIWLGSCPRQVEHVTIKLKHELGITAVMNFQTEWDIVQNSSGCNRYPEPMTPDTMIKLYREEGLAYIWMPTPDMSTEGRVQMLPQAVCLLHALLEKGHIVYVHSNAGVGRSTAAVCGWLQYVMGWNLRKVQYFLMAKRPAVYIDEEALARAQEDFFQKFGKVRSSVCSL
Assay: two-hybrid; LexA-laforin (pEG202) with Gal4 activation domain-malin or -PTG (pACT2) in S. cerevisiae; beta-galactosidase activity in yeast cell extract, in Miller Units
Details: partners not purified

Binder | fold signal against WT laforin [fold]
malin (Gal4 activation domain fusion) (natural protein, UniProt Q6VVB1 1-395, looked up, malin; source: yeast two-hybrid fusion (S. cerevisiae, pACT2)) MAAEASESGPALHELMREAEISLLECKVCFEKFGHRQQRRPRNLSCGHVVCLACVAALAHPRTLALECPFCRRACRGCDTSDCLPVLHLIELLGSALRQSPAAHRAAPSAPGALTCHHTFGGWGTLVNPTGLALCPKTGRVVVVHDGRRRVKIFDSGGGCAHQFGEKGDAAQDIRYPVDVTITNDCHVVVTDAGDRSIKVFDFFGQIKLVIGGQFSLPWGVETTPQNGIVVTDAEAGSLHLLDVDFAEGVLRRTERLQAHLCNPRGVAVSWLTGAIAVLEHPLALGTGVCSTRVKVFSSSMQLVGQVDTFGLSLYFPSKITASAVTFDHQGNVIVADTSGPAILCLGKPEEFPVPKPMVTHGLSHPVALTFTKENSLLVLDTASHSIKVYKVDWG | ~2
protein targeting to glycogen (Gal4 activation domain fusion) (natural protein, UniProt Q9UQK1 1-317, looked up, protein targeting to glycogen (PTG); also called PTG; source: yeast two-hybrid fusion (S. cerevisiae, pACT2)) MSCTRMIQVLDPRPLTSSVMPVDVAMRLCLAHSPPVKSFLGPYDEFQRRHFVNKLKPLKSCLNIKHKAKSQNDWKCSHNQAKKRVVFADSKGLSLTAIHVFSDLPEEPAWDLQFDLLDLNDISSALKHHEEKNLILDFPQPSTDYLSFRSHFQKNFVCLENCSLQERTVTGTVKVKNVSFEKKVQIRITFDSWKNYTDVDCVYMKNVYGGTDSDTFSFAIDLPPVIPTEQKIEFCISYHANGQVFWDNNDGQNYRIVHVQWKPDGVQTQMAPQDCAFHQTSPKTELESTIFGSPRLASGLFPEWQSWGRMENLASYR | ~2
